Source: PMC6707239 (Scientific Reports, 2019)
Positions count from the first letter of the chain named. Numbers in names are those of the source.

B1: human mitochondrial hsp60 D3G mutant (MitCHAP-60) (natural protein, UniProt P10809 27-573, looked up)
chain: AKGVKFGADARALMLQGVDLLADAVAVTMGPKGRTVIIEQSWGSPKVTKDGVTVAKSIDLKDKYKNIGAKLVQDVANNTNEEAGDGTTTATVLARSIAKEGFEKISKGANPVEIRRGVMLAVDAVIAELKKQSKPVTTPEEIAQVATISANGDKEIGNIISDAMKKVGRKGVITVKDGKTLNDELEIIEGMKFDRGYISPYFINTSKGQKCEFQDAYVLLSEKKISSIQSIVPALEIANAHRKPLVIIAEDVDGEALSTLVLNRLKVGLQVVAVKAPGFGDNRKNQLKDMAIATGGAVFGEEGLTLNLEDVQPHDLGKVGEVIVTKDDAMLLKGKGDKAQIEKRIQEIIEQLDVTTSEYEKEKLNERLAKLSDGVAVLKVGGTSDVEVNEKKDRVTDALNATRAAVEEGIVLGGGCALLRCIPALDSLTPANEDQKIGIEIIKRTLKIPAMTIAKNAGVEGSLIVEKIMQSSSEVGYDAMAGDFVNMVEKGIIDPTKVVRTALLDAAGVASLLTTAEVVVTEIPKEEKDPGMGAMGGMGGGMGGGMF
notes: human mitochondrial hsp60 (HspD1), mature protein without the mitochondrial signal peptide, disease mutation D3G, cloned into pET-22b; numbers count on: the mature protein; Mutation found in patients with MitCHAP-60; also called D3G-hsp60; source: E. coli BL21 (DE3), purified (ammonium sulfate, anion-exchange, size-exclusion chromatography)
B2: human mitochondrial hsp60 V72I mutant (SPG13) (natural protein, UniProt P10809 27-573, looked up)
chain: B1 chain with G3D, V72I
notes: human mitochondrial hsp60 (HspD1), mature protein without the mitochondrial signal peptide, disease mutation V72I, cloned into pET-22b; numbers count on: the mature protein; Mutation linked to SPG13; source: E. coli BL21 (DE3), purified (ammonium sulfate, anion-exchange, size-exclusion chromatography)

Target: the molecule itself
Test: dynamic light scattering; Malvern Zetasizer Nano ZS, hsp60 (wild type or mutant) without nucleotide (APO); percent volume

| Protein | stoichiometry N |
| --- | --- |
| B1 | 14 |
| B2 | 14 |
